Measurements from publication PMC5803496, “The catalytic inactivation of the N-half of human hexokinase 2 and structural and biochemical characterization of its mitochondrial conformation” (Bioscience Reports, 2018).

Target: the molecule itself
Experiment: crystal structure; sitting-drop vapor diffusion, 16% PEG 3350, 0.2 M sodium malonate, 0.1 M Bis-Tris propane pH 8.5, 10% ethylene glycol, 1 mM DTT, 18°C; in complex with glucose and G6P; the dimer is in the asymmetric unit

B1: Δ16 variant of the wild-type human hexokinase 2 (enzyme, UniProt P52789 17-917, looked up)
chain: DQVQKVDQYLYHMRLSDETLLEISKRFRKEMEKGLGATTHPTAAVKMLPTFVRSTPDGTEHGEFLALDLGGTNFRVLWVKVTDNGLQKVEMENQIYAIPEDIMRGSGTQLFDHIAECLANFMDKLQIKDKKLPLGFTFSFPCHQTKLDESFLVSWTKGFKSSGVEGRDVVALIRKAIQRRGDFDIDIVAVVNDTVGTMMTCGYDDHNCEIGLIVGTGSNACYMEEMRHIDMVEGDEGRMCINMEWGAFGDDGSLNDIRTEFDQEIDMGSLNPGKQLFEKMISGMYMGELVRLILVKMAKEELLFGGKLSPELLNTGRFETKDISDIEGEKDGIRKAREVLMRLGLDPTQEDCVATHRICQIVSTRSASLCAATLAAVLQRIKENKGEERLRSTIGVDGSVYKKHPHFAKRLHKTVRRLVPGCDVRFLRSEDGSGKGAAMVTAVAYRLADQHRARQKTLEHLQLSHDQLLEVKRRMKVEMERGLSKETHASAPVKMLPTYVCATPDGTEKGDFLALDLGGTNFRVLLVRVRNGKWGGVEMHNKIYAIPQEVMHGTGDELFDHIVQCIADFLEYMGMKGVSLPLGFTFSFPCQQNSLDESILLKWTKGFKASGCEGEDVVTLLKEAIHRREEFDLDVVAVVNDTVGTMMTCGFEDPHCEVGLIVGTGSNACYMEEMRNVELVEGEEGRMCVNMEWGAFGDNGCLDDFRTEFDVAVDELSLNPGKQRFEKMISGMYLGEIVRNILIDFTKRGLLFRGRISERLKTRGIFETKFLSQIESDCLALLQVRAILQHLGLESTCDDSIIVKEVCTVVARRAAQLCGAGMAAVVDRIRENRGLDALKVTVGVDGTLYKLHPHFAKVMHETVKDLAPKCDVSFLQSEDGSGKGAALITAVACRIREAGQR
notes: wild type; Crystallised in complex with glucose and glucose-6-phosphate; also called Δ16-HK2; HK2; source: E. coli, Champion pET SUMO expression system, purified (nickel-chelating resin, Superdex 200)
  binding result: binds
